Test system: O=[N+]([O-])c1ccc(Cl)c([N+](=O)[O-])c1
Test: purified protein
Conditions: co-substrate GSH, CDNB 0.5-4.5 mM, 25 °C

For rHsGST (Halomonas sp.), the Km was 2860 µM and the kcat/Km was 18800 M⁻¹ s⁻¹.

Source: article PMC6471826, “Cold-Adapted Glutathione S-Transferases from Antarctic Psychrophilic Bacterium Halomonas sp. ANT108: Heterologous Expression, Characterization, and Oxidative Resistance” (Marine Drugs, 2019)
